The record followed here is US11572568B2, “Regulating alkaloids” (22nd Century Limited, LLC, priority 2006, dated 2023).

Data set [1] addresses T1, Recombinant tobacco MPO1 (Nicotiana tabacum, UniProt A0A1S4BDC4).
T1 sequence (A0A1S4BDC4 1-790): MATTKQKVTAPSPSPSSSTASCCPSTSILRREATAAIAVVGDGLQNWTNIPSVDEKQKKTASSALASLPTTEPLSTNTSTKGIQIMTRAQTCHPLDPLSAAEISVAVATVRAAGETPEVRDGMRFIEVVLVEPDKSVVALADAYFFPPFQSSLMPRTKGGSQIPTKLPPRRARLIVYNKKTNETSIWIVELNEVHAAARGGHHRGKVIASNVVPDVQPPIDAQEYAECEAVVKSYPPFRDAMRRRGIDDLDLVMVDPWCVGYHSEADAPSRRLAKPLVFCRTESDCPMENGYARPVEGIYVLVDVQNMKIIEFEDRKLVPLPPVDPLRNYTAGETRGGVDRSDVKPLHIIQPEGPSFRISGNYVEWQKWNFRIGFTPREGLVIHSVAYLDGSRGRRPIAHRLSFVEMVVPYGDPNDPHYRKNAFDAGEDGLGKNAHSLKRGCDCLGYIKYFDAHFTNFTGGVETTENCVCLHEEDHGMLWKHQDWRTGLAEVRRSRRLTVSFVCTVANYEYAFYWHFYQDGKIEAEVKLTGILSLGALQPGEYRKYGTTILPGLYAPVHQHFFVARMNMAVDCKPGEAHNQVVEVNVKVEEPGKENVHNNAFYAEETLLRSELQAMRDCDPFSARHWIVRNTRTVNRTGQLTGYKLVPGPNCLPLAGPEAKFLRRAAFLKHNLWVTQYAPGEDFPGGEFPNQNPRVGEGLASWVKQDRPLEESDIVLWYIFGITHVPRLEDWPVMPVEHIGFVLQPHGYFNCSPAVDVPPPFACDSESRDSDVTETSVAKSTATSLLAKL
To be noted: for V/K: substrate of recombinant tobacco MPO1. The protocol:
The PCR product was first cloned into a pGEM-T Easy vector (Promega), then excised as the EcoRV-Not1 fragment, and finally cloned into the expression vector pGEX-6P (GE Healthcare). The resultant plasmid pGEX-MPO1 was introduced into the E. coli strain Rosetta (DE3) (Novagen). The recombinant bacteria were cultured in LB medium containing 50 μg/ml carbenicillin at 37° C. until the OD600 of the culture reached 0.4, IPTG and CuSO4 were added to the culture to the final concentrations of 0.1 mM and 4 mM, respectively, and the cultures were incubated at 16° C. for 16 h. Bacteria were harvested by centrifugation, suspended in a PBS buffer containing 10 mM DTT and 1 mg/ml lysozyme, incubated at 4° C. for 2 h, and then sonicated for 3 min. After centrifugation of the homogenate, the recombinant MPO1 protein fused to GST was purified from the supernatant by GSTrap HP (GE Healthcare) according to the manufacturer's protocol.

Data set [2] deals with NCCCN. Nature of the data set: purified protein, by the assay type. The conditions noted are these: other: substrate of recombinant tobacco MPO1 (GST fusion, purified from E. coli).
For data set [3], the system named is NCCCCCN. Description: purified protein, by the assay type. The conditions noted are these: other: substrate of recombinant tobacco MPO1 (GST fusion, purified from E. coli).
Data set [4] has as its target T2, Pig kidney diamine oxidase (Sus scrofa, UniProt Q9TRC7).
T2 sequence (Q9TRC7 25-755): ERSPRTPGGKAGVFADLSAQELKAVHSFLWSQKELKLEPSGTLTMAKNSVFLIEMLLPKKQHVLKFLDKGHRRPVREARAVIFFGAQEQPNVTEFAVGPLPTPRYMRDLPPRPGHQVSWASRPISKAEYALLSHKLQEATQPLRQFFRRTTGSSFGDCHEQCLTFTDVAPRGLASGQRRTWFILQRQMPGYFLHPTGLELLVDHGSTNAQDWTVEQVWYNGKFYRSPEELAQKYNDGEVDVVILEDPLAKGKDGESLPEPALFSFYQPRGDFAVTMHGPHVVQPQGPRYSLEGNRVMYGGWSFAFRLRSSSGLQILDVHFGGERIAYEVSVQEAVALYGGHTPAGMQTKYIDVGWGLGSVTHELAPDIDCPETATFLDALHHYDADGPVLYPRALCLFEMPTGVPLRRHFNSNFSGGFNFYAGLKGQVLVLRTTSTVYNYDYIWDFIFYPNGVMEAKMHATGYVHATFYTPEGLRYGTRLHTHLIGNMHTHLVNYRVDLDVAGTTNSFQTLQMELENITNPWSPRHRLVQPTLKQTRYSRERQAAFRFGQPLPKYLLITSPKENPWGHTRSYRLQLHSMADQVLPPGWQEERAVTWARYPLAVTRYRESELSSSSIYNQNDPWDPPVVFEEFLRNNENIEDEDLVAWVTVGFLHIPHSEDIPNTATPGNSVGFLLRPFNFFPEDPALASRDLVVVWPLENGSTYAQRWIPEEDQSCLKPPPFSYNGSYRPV
To be noted: in words.

Substrate in data set [5]: CNCCCCN
Nature of the data set: purified protein, by the assay type. The conditions noted are these: other: substrate of purified pig kidney diamine oxidase (Sigma).

Substrate in data set [6]: NCCCCCN
Nature of the data set: purified protein, by the assay type. To be noted: other: substrate of purified pig kidney diamine oxidase (Sigma).

Substrate in data set [7]: NCCCCN
Nature of the data set: purified protein, by the assay type. To be noted: other: substrate of purified pig kidney diamine oxidase (Sigma).

Broadly, the Km is the substrate concentration at which the rate is half of its maximum. For `CCCCN` [n-Butylamine], in data set [1] (substrate of recombinant tobacco MPO1 (GST fusion, purified from E. coli)), the Km is 249 ± 180 µM. With “Recombinant tobacco MPO1 (Nicotiana tabacum)”, the Km is 158 ± 100 µM in data set [2] and 362 ± 320 µM in data set [3]. As for `NCCCCN` [Putrescine], in data set [4], the substrate preference result was “preferred putrescine over N-methylputrescine”. In data set [1], the V/K is 3600.

For the molecule `CNCCCN` [N-Methyl-1,3-diaminopropane], the V/K in data set [1] is 13000.

B1: Pig kidney diamine oxidase (Sus scrofa) (protein)
chain: ERSPRTPGGKAGVFADLSAQELKAVHSFLWSQKELKLEPSGTLTMAKNSVFLIEMLLPKKQHVLKFLDKGHRRPVREARAVIFFGAQEQPNVTEFAVGPLPTPRYMRDLPPRPGHQVSWASRPISKAEYALLSHKLQEATQPLRQFFRRTTGSSFGDCHEQCLTFTDVAPRGLASGQRRTWFILQRQMPGYFLHPTGLELLVDHGSTNAQDWTVEQVWYNGKFYRSPEELAQKYNDGEVDVVILEDPLAKGKDGESLPEPALFSFYQPRGDFAVTMHGPHVVQPQGPRYSLEGNRVMYGGWSFAFRLRSSSGLQILDVHFGGERIAYEVSVQEAVALYGGHTPAGMQTKYIDVGWGLGSVTHELAPDIDCPETATFLDALHHYDADGPVLYPRALCLFEMPTGVPLRRHFNSNFSGGFNFYAGLKGQVLVLRTTSTVYNYDYIWDFIFYPNGVMEAKMHATGYVHATFYTPEGLRYGTRLHTHLIGNMHTHLVNYRVDLDVAGTTNSFQTLQMELENITNPWSPRHRLVQPTLKQTRYSRERQAAFRFGQPLPKYLLITSPKENPWGHTRSYRLQLHSMADQVLPPGWQEERAVTWARYPLAVTRYRESELSSSSIYNQNDPWDPPVVFEEFLRNNENIEDEDLVAWVTVGFLHIPHSEDIPNTATPGNSVGFLLRPFNFFPEDPALASRDLVVVWPLENGSTYAQRWIPEEDQSCLKPPPFSYNGSYRPV
On to B1, for which the Michaelis-Menten constant (Km) in data set [5] came out at 657 ± 240 µM; in data set [6], 915 ± 420 µM; in data set [7], 228 ± 90 µM.
